B1: His-tagged Loqs-PD, wild type [Drosophila melanogaster] / Drosophila melanogaster Dicer-2 (Dcr-2), wild type [Drosophila melanogaster] (parent complex)
chain 1: MDQENFHGSSLPQQLQNLHIQPQQASPNPVQTGFAPRRHYNNLVGLGNGNAVSGSPVKGAPLGQRHVKLKKEKISAQVAQLSQPGQLQLSDVGDPALAGGSGLQGGVGLMGVILPSDEALKFVSETDANGLAMKTPVSILQELLSRRGITPGYELVQIEGAIHEPTFRFRVSFKDKDTPFTAMGAGRSKKEAKHAAARALIDKLIGAQLPESPSSSAGPSVTGLTVAGSGGDGNANATGGGDASDKTVGNPIGWLQEMCMQRRWPPPSYETETEVGLPHERLFTIACSILNYREMGKGKSKKIAKRLAAHRMWMRLQETPIDSGKISDSICGELEGEVSIIQDIDRYEQVSKDFEFIKI
chain 2: MEDVEIKPRGYQLRLVDHLTKSNGIVYLPTGSGKTFVAILVLKRFSQDFDKPIESGGKRALFMCNTVELARQQAMAVRRCTNFKVGFYVGEQGVDDWTRGMWSDEIKKNQVLVGTAQVFLDMVTQTYVALSSLSVVIIDECHHGTGHHPFREFMRLFTIANQTKLPRVVGLTGVLIKGNEITNVATKLKELEITYRGNIITVSDTKEMENVMLYATKPTEVMVSFPHQEQVLTVTRLISAEIEKFYVSLDLMNIGVQPIRRSKSLQCLRDPSKKSFVKQLFNDFLYQMKEYGIYAASIAIISLIVEFDIKRRQAETLSVKLMHRTALTLCEKIRHLLVQKLQDMTYDDDDDNVNTEEVIMNFSTPKVQRFLMSLKVSFADKDPKDICCLVFVERRYTCKCIYGLLLNYIQSTPELRNVLTPQFMVGRNNISPDFESVLERKWQKSAIQQFRDGNANLMICSSVLEEGIDVQACNHVFILDPVKTFNMYVQSKGRARTTEAKFVLFTADKEREKTIQQIYQYRKAHNDIAEYLKDRVLEKTEPELYEIKGHFQDDIDPFTNENGAVLLPNNALAILHRYCQTIPTDAFGFVIPWFHVLQEDERDRIFGVSAKGKHVISINMPVNCMLRDTIYSDPMDNVKTAKISAAFKACKVLYSLGELNERFVPKTLKERVASIADVHFEHWNKYGDSVTATVNKADKSKDRTYKTECPLEFYDALPRVGEICYAYEIFLEPQFESCEYTEHMYLNLQTPRNYAILLRNKLPRLAEMPLFSNQGKLHVRVANAPLEVIIQNSEQLELLHQFHGMVFRDILKIWHPFFVLDRRSKENSYLVVPLILGAGEQKCFDWELMTNFRRLPQSHGSNVQQREQQPAPRPEDFEGKIVTQWYANYDKPMLVTKVHRELTPLSYMEKNQQDKTYYEFTMSKYGNRIGDVVHKDKFMIEVRDLTEQLTFYVHNRGKFNAKSKAKMKVILIPELCFNFNFPGDLWLKLIFLPSILNRMYFLLHAEALRKRFNTYLNLHLLPFNGTDYMPRPLEIDYSLKRNVDPLGNVIPTEDIEEPKSLLEPMPTKSIEASVANLEITEFENPWQKYMEPVDLSRNLLSTYPVELDYYYHFSVGNVCEMNEMDFEDKEYWAKNQFHMPTGNIYGNRTPAKTNANVPALMPSKPTVRGKVKPLLILQKTVSKEHITPAEQGEFLAAITASSAADVFDMERLEILGDSFLKLSATLYLASKYSDWNEGTLTEVKSKLVSNRNLLFCLIDADIPKTLNTIQFTPRYTWLPPGISLPHNVLALWRENPEFAKIIGPHNLRDLALGDEESLVKGNCSDINYNRFVEGCRANGQSFYAGADFSSEVNFCVGLVTIPNKVIADTLEALLGVIVKNYGLQHAFKMLEYFKICRADIDKPLTQLLNLELGGKKMRANVNTTEIDGFLINHYYLEKNLGYTFKDRRYLLQALTHPSYPTNRITGSYQELEFIGDAILDFLISAYIFENNTKMNPGALTDLRSALVNNTTLACICVRHRLHFFILAENAKLSEIISKFVNFQESQGHRVTNYVRILLEEADVQPTPLDLDDELDMTELPHANKCISQEAEKGVPPKGEFNMSTNVDVPKALGDVLEALIAAVYLDCRDLQRTWEVIFNLFEPELQEFTRKVPINHIRQLVEHKHAKPVFSSPIVEGETVMVSCQFTCMEKTIKVYGFGSNKDQAKLSAAKHALQQLSKCDA

Variants of: B1
Test: pull-down; parent: 1; read off a plot

| Variant | ratio to parent |
| --- | --- |
| chain 1 MDQENFHGSSLPQQLQNLHIQPQQASPNPVQTGFAPRRHYNNLVGLGNGNAVSGSPVKGAPLGQRHVKLKKEKISAQVAQLSQPGQLQLSDVGDPALAGGSGLQGGVGLMGVILPSDEALKFVSETDANGLAMKTPVSILQELLSRRGITPGYELVQIEGAIHEPTFRFRVSFKDKDTPFTAMGAGRSKKEAKHAAARALIDKLIGAQLPESPSSSAGPSVTGLTVAGSGGDGNANATGGGDASDKTVGNPIGWLQEMCMQRRWPPPSYETETEVGLPHERLFTIACSILNYREMGKGKSKKIAKRLAAHRMWMRLQETPIDSGKISDSICGELEGEVSIIQDIDRAEQVSKDFEFIKI [chain 1 Y347A] | ~0.1 |
| chain 1 MDQENFHGSSLPQQLQNLHIQPQQASPNPVQTGFAPRRHYNNLVGLGNGNAVSGSPVKGAPLGQRHVKLKKEKISAQVAQLSQPGQLQLSDVGDPALAGGSGLQGGVGLMGVILPSDEALKFVSETDANGLAMKTPVSILQELLSRRGITPGYELVQIEGAIHEPTFRFRVSFKDKDTPFTAMGAGRSKKEAKHAAARALIDKLIGAQLPESPSSSAGPSVTGLTVAGSGGDGNANATGGGDASDKTVGNPIGWLQEMCMQRRWPPPSYETETEVGLPHERLFTIACSILNYREMGKGKSKKIAKRLAAHRMWMRLQETPIDSGKISDSICGELEGEVSIIQDIDRYEQVSKDFEFIKD [chain 1 I359D] | ~0.04 |
| chain 1 MDQENFHGSSLPQQLQNLHIQPQQASPNPVQTGFAPRRHYNNLVGLGNGNAVSGSPVKGAPLGQRHVKLKKEKISAQVAQLSQPGQLQLSDVGDPALAGGSGLQGGVGLMGVILPSDEALKFVSETDANGLAMKTPVSILQELLSRRGITPGYELVQIEGAIHEPTFRFRVSFKDKDTPFTAMGAGRSKKEAKHAAARALIDKLIGAQLPESPSSSAGPSVTGLTVAGSGGDGNANATGGGDASDKTVGNPIGWLQEMCMQRRWPPPSYETETEVGLPHERLFTIACSILNYREMGKGKSKKIAKRLAAHRMWMRLQETPIDSGKISDSICGELEGEVSIIQDIDRYEQVSKDFEDIKI [chain 1 F356D] | ~0.06 |

Source: paper PMC9279154 (Nature, 2022)
